Legend:
DYNLT1 locus = assay: mKate knock-in gene-editing assay, RecE/RecT homologs, DYNLT1 locus; assay type: cell-based, human; settings: HEK293 cells, MCP fusion, n=3
In short: (§1)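 RecE/RecT homologs from 15 microbial species, codon-optimized and each fused via E-XTEN linker to MCP with NLS, tested for mKate knock-in. Cells transfected by Lipofectamine 3000 (HEK293T 250 ng DNA/well; HeLa, HepG2 400 ng); knock-in efficiency measured by flow cytometry 72 h post-transfection.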

[1] = tested on: endogenous genomic loci (DYNLT1, HSP90AA1, AAVS1, ACTB) in HEK293T cells; assay: Kilobase mKate knock-in assay in HEK293T cells (flow cytometry); assay type: cell-based, human; settings: for HDR / knock-in efficiency enhancement: five genomic sites (EMX1, VEGFA, HSP90AA1, DYNLT1, AAVS1), wtCas9; for activity in no-recruitment control: PCP no-recruitment control; for knock-in editing activity with dCas9, comparison of SSAPs: dCas9, MS2-MCP
Experimental: Transfection HEK293T cells were seeded into 96-well plates (Corning) 12-24 hours prior to transfection at a density of 30,000 cells/well, and 250 ng of total DNA was transfected per well. HeLa and HepG2 cells were seeded into 48-well plates (Corning) one day prior to transfection at a density of 50,000 and 30,000 cells/well respectively, and 400 ng of total DNA was transfected per well. Transfections were performed with Lipofectamine 3000 (Life Technologies) following the manufacturer's instructions.
(§2) Fluorescence-activated cell sorting (FACS) mKate knock-in efficiency was analyzed on a CytoFLEX flow cytometer (Beckman Coulter; Stanford Stem Cell FACS Core). 72 hours after transfection, cells were washed once with PBS and dissociated with TrypLE Express Enzyme (Thermo Fisher Scientific). Cell suspension was then transferred to a 96-well U-bottom plate (Thermo Fisher Scientific) and centrifuged at 300×G for 5 minutes. After removing the supernatant, pelleted cells were resuspended with 50 μl 4% FBS in PBS, and cells were sorted within 30 minutes of preparation.
HEK293T, Hela, HepG2 and U2OS cells were seeded into 96-well plates (Corning) 12-24 hours prior to transfection at a density of 30,000 cells/well, and 250 ng of total DNA was transfected per well. Cells were transfected with Lipofectamine 3000 (Life Technologies) following the manufacturer's instructions when the cell are ˜70% confluence. In brief, we used 250 ng total DNA, 0.4 ul Lip3000 reagent, mixed with 10 ul of Opti-MEM per well. For the 250 ng DNA, we used 160 ng of dCas9-SSAP guide RNA plasmids (for double sgRNAd design, use equal amount of the two guide RNA plasmids, e.g., 80 ng each), 60 ng of pMCP-RecT or GFP control plasmid (addgene #64539) and 30 ng of PCR template DNA (the PCR primer could be found in Table 7, the template sequence could be found in Supplementary Sequences). Three days later, the cells were analyzed using FACS.
as §2, with “mKate” for “Fluorescence-activated cell sorting (FACS) mKate”, “transfection or 96 hours after electroporation,” for “transfection,”, “twice” for “once”, “300 g” for “300×G”, “analyzed” for “sorted”, “after” for “of”

HSP90AA1 locus = assay: mKate knock-in gene-editing assay, RecE/RecT homologs, HSP90AA1 locus; assay type: cell-based, human; settings: HEK293 cells, MCP fusion, n=3
In short: as §1

[2] = tested on: endogenous genome targets (ACTB, HSP90AA1); assay: Arrayed SSAP library screening, mKate knock-in assay (editing efficiency); assay type: cell-based; settings: average of HSP90 and ACTB, 3 days after transfection
In short: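 Mammalian cells in duplicate were transfected with SSAP-encoding plasmids, with about 50% transfection efficiency. mKate knock-in positive cells and viability, by flow-cytometric live counts, were quantified three days later. RecT SSAP served as positive control and Flag-HA plasmid as negative control.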

mammalian cells = assay: Arrayed SSAP library screening, cell viability by live cell counts via flow cytometry; assay type: cell-based
In short: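 Each SSAP plasmid transfected in duplicate (~50% efficiency), with RecT SSAP as positive and Flag-HA as negative control. After three days, mKate-positive cells and viability by flow-cytometric live cell counts were quantified to gauge SSAP fitness effects.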

| Molecule | Mean mKate+ (%), DYNLT1 (DYNLT1 locus) [%] | HDR / knock-in efficiency enhancement [1] | Mean mKate+ (%), HSP90AA1 (HSP90AA1 locus) [%] | activity in no-recruitment control [1] | genomic knock-in efficiency of kilobase cassette, dCas9 editing ([1]; SSAP candidate screen, HSP90AA1, DYNLT1, ACTB, human cells) [%] | knock-in editing activity with dCas9, comparison of SSAPs ([1]; human cells) | knock-in editing activity with dCas9, comparison of SSAPs ([1]; human cells, listed as RecT) | HDR efficiency for kb-scale knock-in ([1]; template bearing 600-800 bp total HA, without selection) | Editing Efficiency (Normalized, Average, two targets) ([2]; fold over negative control (Flag_HA)) | Editing Efficiency (Absolute, Average, two targets) ([2]; percent of mKate knock-in) | Cell Viability (Average, two targets) (mammalian cells) |
| --- | --- | --- | --- | --- | --- | --- | --- | --- | --- | --- | --- |
| EcRecE_587: Escherichia coli RecE truncated from AA587; SEQ ID NO: 2 (protein) ADPVIVEDIEPGIYYGISNENYHAGPGVSKSQLDDIADTPALYLWRKNAPVDTTKTKTLDLGTAFHCRVLEPEEFSNRFIVAPEFNRRTNSGKEEEKAFLRECASTGKTVITAEEGRKIELMYQSVMALPLGQWLVESAGHAESSIYWEDPETAILCRCRPDKIIPEFHWIMDVKTTADIQRFKTAYYDYRYHVQDAFYSDGYEAQFGVQPTFVFLVASTTIECGRYPVEIFMMGEEAKLAGQLEYHRNLRTLADCLNTDEWPAIKTLSLPRWAKEYAND | 5.1767 | variable increases in knock-in efficiency | 3.7067 | – | – | – | – | – | – | – | – |
| RecE: Escherichia coli RecE exonuclease; SEQ ID NO: 1 (protein, listed as Escherichia coli) MSTKPLFLLRKAKKSSGEPDVVLWASNDFESTCATLDYLIVKSGKKLSSYFKAVATNFPVVNDLPAEGEIDFTWSERYQLSKDSMTWELKPGAAPDNAHYQGNTNVNGEDMTEIEENMLLPISGQELPIRWLAQHGSEKPVTHVSRDGLQALHIARAEELPAVTALAVSHKTSLLDPLEIRELHKLVRDTDKVFPNPGNSNLGLITAFFEAYLNADYTDRGLLTKEWMKGNRVSHITRTASGANAGGGNLTDRGEGFVHDLTSLARDVATGVLARSMDLDIYNLHPAHAKRIEEIIAENKPPFSVFRDKFITMPGGLDYSRAIVVASVKEAPIGIEVIPAHVTEYLNKVLTETDHANPDPEIVDIACGRSSAPMPQRVTEEGKQDDEEKPQPSGTTAVEQGEAETMEPDATEHHQDTQPLDAQSQVNSVDAKYQELRAELHEARKNIPSKNPVDDDKLLAASRGEFVDGISDPNDPKWVKGIQTRDCVYQNQPETEKTSPDMNQPEPVVQQEPEIACNACGQTGGDNCPDCGAVMGDATYQETFDEESQVEAKENDPEEMEGAEHPHNENAGSDPHRDCSDETGEVADPVIVEDIEPGIYYGISNENYHAGPGISKSQLDDIADTPALYLWRKNAPVDTTKTKTLDLGTAFHCRVLEPEEFSNRFIVAPEFNRRTNAGKEEEKAFLMECASTGKTVITAEEGRKIELMYQSVMALPLGQWLVESAGHAESSIYWEDPETGILCRCRPDKIIPEFHWIMDVKTTADIQRFKTAYYDYRYHVQDAFYSDGYEAQFGVQPTFVFLVASTTIECGRYPVEIFMMGEEAKLAGQQEYHRNLRTLADCLNTDEWPAIKTLSLPRWAKEYAND | – | – | – | had activities without recruitment | – | – | – | – | – | – | – |
| EcRecT: Escherichia coli RecT SSAP; SEQ ID NO: 171 (Tables 8, 9), SEQ ID NO: 9; positive control in Table 9 (protein) MTKQPPIAKADLQKTQGNRAPAAIKNNDVISFINQPSMKEQLAAALPRHMTAERMIRIATTEIRKVPALGNCDTMSFVSAIVQCSQLGLEPGSALGHAYLLPFGNKNEKSGKKNVQLIIGYRGMIDLARRSGQIASLSARVVREGDEFNFEFGLDEKLIHRPGENEDAPVTHVYAVARLKDGGTQFEVMTRKQIELVRSQSKAGNNGPWVTHWEEMAKKTAIRRLFKYLPVSIEIQRAVSMDEKEPLTIDPADSSVLTGEYSVIDNSEE | 9.9467 | significantly enhanced HDR in all cases | 6.5467 | efficiency increases in a recruitment-dependent manner | ≤ 6 | highest efficiency for dCas9 editing | higher knock-in editing activities relative to other SSAPs | over 10% | 3.807 | 9.4225 | 0.8651 |
| RecE_CTD: carboxy terminus domain of E. coli RecE; SEQ ID NO: 3 (protein) GISNENYHAGPGVSKSQLDDIADTPALYLWRKNAPVDTTKTKTLDLGTAFHCRVLEPEEFSNRFIVAPEFNRRTNSGKEEEKAFLRECASTGKTVITAEEGRKIELMYQSVMALPLGQWLVESAGHAESSIYWEDPETAILCRCRPDKIIPEFHWIMDVKTTADIQRFKTAYYDYRYHVQDAFYSDGYEAQFGVQPTFVFLVASTTIECGRYPVEIFMMGEEAKLAGQLEYHRNLRTLADCLNTDEWPAIKTLSLPRWAKEYAND | – | variable increases in knock-in efficiency | – | – | – | – | – | – | – | – | – |
